Results as given in patent US20210347873A1 (SHANGHAI PHARMAEXPLORER, published 2021).

Tests used:
biotinylated hBLyS-ECD [1] = molecular target: T1, biotinylated hBLyS-ECD (human, UniProt Q9Y275 134-285, biotinylated with Biotin-X-X-NHS (molar ratio 7:1), sites not stated); assay: ELISA: biotinylated hBLyS-ECD captured on streptavidin, antibody titrated, HRP secondary antibody
T1 construct: The hBLyS-ECD of Embodiment 1 after biotinylation (Embodiment 2); also called biotinylated immunogen; BLyS protein; not shown: His tag of the pCPC vector

biotinylated hBLyS-ECD [2] = molecular target: T2, biotinylated hBLyS-ECD (human, UniProt Q9Y275 134-285, biotinylated with Biotin-X-X-NHS (molar ratio 7:1); sites not stated); assay: competition ELISA; competitor 97A3C2H4
T2 construct: also called biotinylated immunogen; biotinylated hBLvS-ECD
Description: (§1) The purified human BLyS antibody and hybridoma antibody were subjected to competitive enzyme-linked immunosorbent assay and the epitopes binding by different antibodies were analyzed.
(§2) Purified BLyS antibody was first diluted to a final concentration of 1.0 μg/mL with PBS, then aliquoted into a 96-well ELISA plate at 50 μL per well, and the plate was subsequently sealed with plastic film and incubated at 4° C. overnight. On the next day the plate was rinsed four times with the plate washing buffer [PBS buffer containing 0.05% (v/v) Tween20] and mixed with blocking solution [PBS buffer containing 0.05% (v/v) Tween20 and 1% (w/w) BSA], and then blocked at 37° C. for 1 hour. The blocking solution was removed, and the competitive antibody and IgG control were diluted to a final concentration of 40 μg/mL with PBS and then aliquoted into the 96-well ELISA plate at 50 μL per well. The biotinylated hBLyS-ECD was then diluted with PBS to a final concentration of 2 ng/mL and pipetted into the 96-well ELISA plate at 50 μL per well. The final concentration of competitive antibody and hBLyS-ECD was 20 μg/mL and 1 ng/mL, respectively. After incubation at 37° C. for 1 hour, the plate was rinsed four times with the plate washing buffer [PBS buffer containing 0.05% (v/v) Tween20]. 100 μL per well of HRP-labeled (horseradish peroxidase) streptavidin (purchased from Sigma) was added into the plate and the plate was incubated at 37° C. for 1 hour. The plate was then washed four times with the plate washing buffer [PBS buffer containing 0.05% (v/v) Tween20]. 100 μL of TMB substrate was aliquoted into each well and after incubation at room temperature for 5 minutes, 100 μL of stop solution (1.0 N HCl) was aliquoted into each well. A₄₅₀ₙₘ values were read by an ELISA plate reader (SpectraMax M5e, purchased from Molecular Device) and the results were shown in Tables 18A-18B. […] The data shown in the table is the inhibitory rate (%) of the binding level of the original antibody to hBLyS-ECD after addition of the competitive antibody.

biotinylated hBLyS-ECD [3] = molecular target: T2, biotinylated hBLyS-ECD; assay: competition ELISA; competitor 111D10D6G3
Description: as §1, §2

biotinylated hBLyS-ECD [4] = molecular target: T2, biotinylated hBLyS-ECD; assay: competition ELISA; competitor 78C11D2D12
Description: as §1, §2

biotinylated hBLyS-ECD [5] = molecular target: T2, biotinylated hBLyS-ECD; assay: competition ELISA; competitor 8E7D9C7F5
Description: as §1, §2

biotinylated hBLyS-ECD [6] = molecular target: T2, biotinylated hBLyS-ECD; assay: competition ELISA; competitor 93C6F10D3
Description: as §1, §2

biotinylated hBLyS-ECD [7] = molecular target: T2, biotinylated hBLyS-ECD; assay: competition ELISA; competitor 35E6F7C3
Description: as §1, §2

biotinylated hBLyS-ECD [8] = molecular target: T2, biotinylated hBLyS-ECD; assay: competition ELISA; competitor 67A2E1D10
Description: as §1, §2

[9] = molecular target: extracellular domain of human BLyS protein (hBLyS-ECD), His-tagged, Ala134-Leu285 (human, UniProt Q9Y275 134-285); assay: cell-based or functional assay

Binder | EC50 (read off the curve) (biotinylated hBLyS-ECD [1]) [nM] | inhibitory rate (%) (biotinylated hBLyS-ECD [2]) | inhibitory rate (%) (biotinylated hBLyS-ECD [3]) | inhibitory rate (%) (biotinylated hBLyS-ECD [4]) | inhibitory rate (%) (biotinylated hBLyS-ECD [5]) | inhibitory rate (%) (biotinylated hBLyS-ECD [6]) | inhibitory rate (%) (biotinylated hBLyS-ECD [7]) | inhibitory rate (%) (biotinylated hBLyS-ECD [8]) | Proportion of B lymphocytes in splenocytes (%), in vivo in mice [9] [%]
67A2E1D10 (antibody, V domains shown, Mouse hybridoma antibody purified on Protein G) VH: EVQLQQSGAELVKPGASVKLSCTASGFNIKNYYMHWVKQRTEEGLEWIGRIDPEDGETKYAPKFQAKATITADTSSNTAYLQLSSLTSEDTAVYFCARKGYYGNYGAWFAYWGQGTLVTVSA VL: DIQMTQSPASLSVSVGETVTITCRASEDLYSNLAWYQQKQGKSPQLLVYAATFLADGVPSRFSGSGSGTQYSLKINSLQSEDFGNYYCQHFWGTPPTFGGGTKLEIK |  | 75 | 86 | 80 | 63 | 44 | 18 | 93 | 
8E7D9C7F5 (antibody, V domains shown, Mouse hybridoma antibody purified on Protein G) VH: QVQLQQSGVELARPGASVKLSCKASGYTFTSYGISWVKQRTGQALEWIGEIYPRSGNTYYNEKFKGKATLTADKSSSTAYMELRSLTSEDSAVYFCARSGPITTLVATDYGMDYWGQGTSVTVSS VL: DIVLTQSPASLAVSLGQRATISCRASKSVSTSSYSYMHWYQQKPGQPPKLLIKFASNLESGVPARFSGSGSGTDFTLNIHPVEEEDAATYYCQHSREFPYTFGGGTKLEIK |  | 89 | 96 | 94 | 92 | 85 | 40 | 96 | 
L1D12 (antibody, V domains shown) VH: QVQLVQSGGGLVQPGGSLRLSCAASGFTVSSNYMSWVRQAPGKGLEWVSVIYSGGSTYYADSVKGRFTISRDNSKNTLYLQMNSLRAEDTAVYYCARGFHDILTGYGMDVWGQGTTVTVSS VL: SSELTQDPAVSVALGQTVRITCQGDSLRNYYAGWYQQKPGQAPVLVIYGKNNRPSGIPDRFSGSSSGNTASLTITGTQAEDEADYYCSSRDNSGTHLVEFGGGTKLTVL |  |  |  |  |  |  |  |  | 26.8
93C6F10D3 (antibody, V domains shown, Mouse hybridoma antibody purified on Protein G) VH: EVQLVESGGGLVTPGGSLKLSCVASGFAFSTYGMSWVRQTPERRLEWVAYISGGGGSIYYPDSVKGRFTISRDNAKNILYLQMSSLKSEDTAMYHCTRHPDLLLRYDYALDHWGQGTSVTVSS VL: DIQMTQSPASLSASVGETVTITCRASENIHIYLAWYQQKQGKSPQLLVYNGKTLADGVPSRFSGSGSGTQYSLKINTLQPEDFGNYYCQHFWNSTWTFGGGTKLEIK |  | 90 | 95 | 92 | 94 | 79 | 42 | 97 | 
35E6F7C3 (antibody, V domains shown, Mouse hybridoma antibody purified on Protein G) VH: EVQLQQSGAELVKPGASVKLSCTAAGFNIQDTYIHWVKQRPEQGLEWIGRIDPANANTVYDPKFQGKATITADTSSNTAYLQVSSLTSEDTAVYYCASPVITAGFAYWGQGTLVTVSA VL: QIVLTQSPAIMSASPGEKVTMTCGASSSVNYVHWYQQKSGTSPKRWIYDTSKLASGVPARFSGSGSGTSYSLTISSMEAEDAATYYCQQWTRSPLTFGAGTKVELK |  | 26 | 38 | 36 | 27 | 33 | 91 | 33 | 
97A3C2H4 (antibody, V domains shown, Mouse hybridoma antibody purified on Protein G) VH: EVKLVESGGGLVQPGGSLKLSCAASGFTFSTYTMSWVRQTPEKRLEWVAYISYGGGSTSYPDTVKGRFTISRDNAKNTLYLQMSSLKSEDTAIYYCTRHVTVVENSMDYWGQGTSVTVSS VL: DILLTQSPDILSVSPGERVSFSCRASQSIGTSIHWYQQRTNGSPRLLIKYVSESFSGTPSRFSGSGSGTAFTLTINSVESEDIADYYCQQTHSWPWTFGGGTKLEIK |  | 89 | 93 | 96 | 93 | 93 | 55 | 96 | 
78C11D2D12 (antibody, V domains shown, Mouse hybridoma antibody purified on Protein G) VH: QVQLQQSGAELVRPGTSVKISCKASGYAFTNYWLGWVKQRPGHGLEWIGDIYPGSGNTYYNEKFKGKATLTADKSSSTAYMQLSSLTSEDSAVFFCAAYLYAMDYWGQGTSVTVSS VL: QIVLTQSPAIMSASPGEKVTITCSASSSVSYMHWFQQKPGTSPKLWIYSASNLASGVPARFSGSGSGTSYSLTISRMEAEDAATYYCQQRGSYPFTFGSGTKLEIK |  | 46 | 95 | 88 | 37 | 58 | 29 | 95 | 

Results, then the binder that gave them:

EC50 (read off the curve) (biotinylated hBLyS-ECD [1]) [nM] | inhibitory rate (%) (biotinylated hBLyS-ECD [2]) | inhibitory rate (%) (biotinylated hBLyS-ECD [3]) | inhibitory rate (%) (biotinylated hBLyS-ECD [4]) | inhibitory rate (%) (biotinylated hBLyS-ECD [5]) | inhibitory rate (%) (biotinylated hBLyS-ECD [6]) | inhibitory rate (%) (biotinylated hBLyS-ECD [7]) | inhibitory rate (%) (biotinylated hBLyS-ECD [8]) | Proportion of B lymphocytes in splenocytes (%), in vivo in mice [9] [%] | Binder
~0.1 |  |  |  |  |  |  |  |  | c67A2E1D10 (antibody, human IgG1, V domains shown, also called BLyS chimeric antibody) VH: EVQLQQSGAELVKPGASVKLSCTASGFNIKNYYMHWVKQRTEEGLEWIGRIDPEDGETKYAPKFQAKATITADTSSNTAYLQLSSLTSEDTAVYFCARKGYYGNYGAWFAYWGQGTLVTVSA VL: DIQMTQSPASLSVSVGETVTITCRASEDLYSNLAWYQQKQGKSPQLLVYAATFLADGVPSRFSGSGSGTQYSLKINSLQSEDFGNYYCQHFWGTPPTFGGGTKLEIK
~0.07 |  |  |  |  |  |  |  |  | c93C6F10D3 (antibody, human IgG1, V domains shown, also called BLyS chimeric antibody) VH: EVQLVESGGGLVTPGGSLKLSCVASGFAFSTYGMSWVRQTPERRLEWVAYISGGGGSIYYPDSVKGRFTISRDNAKNILYLQMSSLKSEDTAMYHCTRHPDLLLRYDYALDHWGQGTSVTVSS VL: DIQMTQSPASLSASVGETVTITCRASENIHIYLAWYQQKQGKSPQLLVYNGKTLADGVPSRFSGSGSGTQYSLKINTLQPEDFGNYYCQHFWNSTWTFGGGTKLEIK
 | 26 | 95 | 86 | 27 | 41 | 22 | 96 |  | 111D10D6G3 (antibody, V domains shown, Mouse hybridoma antibody purified on Protein G) VH: QVQLQQPGAELVKPGASVKMSCKASGYTFTRHWITWVKQRPGQGLEWIGDIFPGSGSINYNEKFKSEATLTVEKSSSTAYMQLSSLTSEDSAVYYCARGDVDVWGTGTTVTVSS VL: DIQMTQSPSSLSASLGERVSLTCRASQEIRGYLSWLQQKPNGTIKRLIYAASTLDSGVPKRFSATRSGSDFSLTISSLESEDFADYYCLQYASYPFTFGSGTKLEIK
